The target of this experiment is SARS-CoV-2 nsp12 (RNA-dependent RNA polymerase) (SARS-CoV-2, UniProt P0DTD1). The experiment in a line: cryo-EM structure.

B1: SARS-CoV-2 nsp9 (full-length, residues N1–Q113) (natural protein)
chain: NNELSPVALRQMSCAAGTTQTACTDDNALAYYNTTKGGRFVLALLSDLQDLKWARFPKSDGTGTIYTELEPPCRFVTDTPKGPKVKYLYFIKGLNNLNRGMVLGSLAATVRLQ
Regarding B1, the binding result was “binds”.

These data come from publication PMC7666536 (Cell, 2020).
